3 molecules from patent publication US20170168078A1 can be followed below.

In assay [1] the target is human folate receptor delta (FRΔ) expressed on CHO cells (human) (UniProt A6ND01). The assay can be described thus: flow cytometry on cells expressing FRΔ, antibody 1 µg/mL (parental CHOK1: 5.9).
The target is the same in assay [2]. Put plainly: flow cytometry on cells expressing FRΔ, antibody 1 µg/mL (parental CHOK1: 5.7).

Chain of human folate receptor delta (FRΔ) expressed on CHO cells (human) (A6ND01 20-228, stated change not applied): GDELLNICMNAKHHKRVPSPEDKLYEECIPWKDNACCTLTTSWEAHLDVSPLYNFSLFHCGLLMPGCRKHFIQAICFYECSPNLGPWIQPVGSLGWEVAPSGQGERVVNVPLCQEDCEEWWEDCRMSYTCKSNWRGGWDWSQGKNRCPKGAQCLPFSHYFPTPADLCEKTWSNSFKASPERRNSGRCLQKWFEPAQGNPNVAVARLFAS

B1: Monoclonal antibody 24F12.B1 (antibody, mouse IgG1, V domains shown)
VH: SGGGLVRPGGSLKLSCAASGFTFSSYAMSWVRQSPEKRLEWVAEIGSGGSYTYYPDTVTGRFTISRDNAKSTLYLEMSSLRSEDTAIYYCARETTAGYFDYWGQGTTLTVSS
VL: TSSLSASLGDRVTISCSASQGINNFLNWYQQKPDGTVKLLIYYTSSLHSGVPSRFSGSGSGTDYSLTISNLEPEDIAIYYCQHFSKLPWTFGGGTKLEIKR
Take B1: in assay [1], the Geometric Mean was 5.9.

B2: Monoclonal antibody 9F3.H9.H3.H3.B5.G2 (antibody, mouse IgG2a, V domains shown)
VH: ESGPGLVRPSQSLSLTCSVTGYSITSGYYWNWIRQFPGSRLEWMGYIKSDGSNNYNPSLKNRISITRDTSKNQFFLKLNSVTTEDTATYFCTREWKAMDYWGQGTSVTVSS
VL: PAIMSASPGEKVTMTCRASSTVSYSYLHWYQQKSGASPQLWIYGTSNLASGVPARFSGSGSGTSYSLTISSVEAEDAATYYCQQYSGYPLTFGAGTKLELKR
For B2, the Geometric Mean in assay [1] turned out to be 5.6.

B3: Monoclonal antibody 26B3.F2 (antibody, mouse IgG1, V domains shown)
VH: GPELVKPGASVKISCKASDYSFTGYFMNWVMQSHGKSLEWIGRIFPYNGDTFYNQKFKGRATLTVDKSSSTAHMELRSLASEDSAVYFCARGTHYFDYWGQGTTLTVSS
VL: PASLSASVGETVTITCRTSENIFSYLAWYQQKQGISPQLLVYNAKTLAEGVPSRFSGSGSGTQFSLKINSLQPEDFGSYYCQHHYAFPWTFGGGSKLEIKR
Consider B3, for which the Geometric Mean in assay [2] was 5.4.
